Molecular target: CTEN (UniProt Q8IZW8)
Test: anti-Flag co-IP, anti-HA blot
Conditions: reference: HA-c-Cbl wild type; sites Y774

## c-Cbl (from UniProt P22681) Y774F
  binding against the reference: lost

From PMC3745516
